Measured values published in patent publication US20110236397.

Tests used:
[1] = system: full-length CD2AP, GFP-tagged (GFP-CD2AP fusion protein, 98 kD)
[2] = system: C-terminal FLAG-tagged CD2AP (71 kD)
[3] = system: CD2AP with the cathepsin L cleavage site LSAAE deleted

Sequence of purified FLAG-CD2AP (chain, as listed by the source): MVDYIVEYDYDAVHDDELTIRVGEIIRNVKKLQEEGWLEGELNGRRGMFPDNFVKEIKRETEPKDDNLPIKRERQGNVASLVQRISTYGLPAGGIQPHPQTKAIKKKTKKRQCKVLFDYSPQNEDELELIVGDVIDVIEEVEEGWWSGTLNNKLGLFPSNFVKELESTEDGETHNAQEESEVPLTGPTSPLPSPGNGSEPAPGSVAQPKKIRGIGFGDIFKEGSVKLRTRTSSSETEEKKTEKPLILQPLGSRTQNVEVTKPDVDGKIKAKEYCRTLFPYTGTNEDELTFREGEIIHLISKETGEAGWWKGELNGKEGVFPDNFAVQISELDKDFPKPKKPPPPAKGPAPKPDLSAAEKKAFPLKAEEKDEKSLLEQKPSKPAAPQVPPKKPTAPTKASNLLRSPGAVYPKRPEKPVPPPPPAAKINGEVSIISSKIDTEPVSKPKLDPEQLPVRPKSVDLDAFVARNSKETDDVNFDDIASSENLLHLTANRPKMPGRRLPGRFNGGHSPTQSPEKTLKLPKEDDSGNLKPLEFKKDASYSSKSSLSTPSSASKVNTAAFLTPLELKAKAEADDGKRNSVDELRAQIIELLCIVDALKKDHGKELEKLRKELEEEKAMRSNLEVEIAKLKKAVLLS

Substance: purified cathepsin L enzyme (Sigma, specific activity 4.13 U/mg)
- in vitro cleavage assay, silver stain (purified FLAG-CD2AP): cleavage assays performed at neutral conditions (pH 7.0) yielded a stable 32 kD CD2AP fragment (p32)
- in vitro cleavage assay, immunoblot [1]: At neutral pH, CD2AP was cleaved into a stable 55 kD fragment as detected with an anti-GFP antibody
- in vitro cleavage assay, immunoblot [2]: This experiment yielded a C-terminal 44 kD fragment of CD2AP; the anti-FLAG antibody also detected a strong band corresponding to p32 fragment
- in vitro cleavage assay, immunoblot [3]: In absence of this cleavage site, the characteristic p32 fragment was no longer observed after enzymatic digest with cathepsin L enzyme
